Values quoted from earlier work, collected in publication PMC3924328, “Structure of the S100A4/myosin-IIA complex” (BMC Structural Biology, 2013).

Target: myosin-IIA 1904-1927 (Homo sapiens) (UniProt P35579)
Assay: fluorescence anisotropy

Sequence of myosin-IIA 1904-1927 (Homo sapiens) (P35579 1904-1927): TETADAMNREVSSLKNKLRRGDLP
Sequence of S100A4 (P26447 2-101): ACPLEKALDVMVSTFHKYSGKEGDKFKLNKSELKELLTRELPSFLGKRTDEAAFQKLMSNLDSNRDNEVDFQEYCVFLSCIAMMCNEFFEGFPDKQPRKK

Kd: 260 nM
Substance: S100A4 (from UniProt P26447)
